Our source for the maximum absorbance (at 5 ng/mL CD64) values is PMC7301450.

For this assay, the target named is α-CD64-scFv. Description: ELISA; wells coated with 10 μg/mL α-CD64-scFv overnight at 4 °C, blocked with 3% BSA/PBS; recombinant CD64 at 0, 0.5, 1.0, 5.0 and 10 ng/mL, room temperature 2 h; detected with rabbit anti-CD64 polyclonal antibody, anti-rabbit HRP and TMB, read at 370 nm.
Chain of α-CD64-scFv (heavy, as listed by the source, chain 1 of 2): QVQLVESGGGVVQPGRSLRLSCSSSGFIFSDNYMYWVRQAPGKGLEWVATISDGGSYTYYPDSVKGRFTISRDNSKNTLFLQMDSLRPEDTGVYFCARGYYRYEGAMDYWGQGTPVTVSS
Chain of α-CD64-scFv (light, as listed by the source, chain 2 of 2): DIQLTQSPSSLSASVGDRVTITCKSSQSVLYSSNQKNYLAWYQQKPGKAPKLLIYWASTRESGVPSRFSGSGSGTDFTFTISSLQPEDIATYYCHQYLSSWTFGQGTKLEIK

Turning to “recombinant human CD64 (from UniProt P12314 16-292) (receptor)”, the maximum absorbance (at 5 ng/mL CD64) is 0.236 absorbance.
